Cytolysis (51Cr release) of Raji (MHC class II+) cells by CTL expressing CD4:ζ data for one substance are collected here from patent EP0871495B1.

The target in this assay is MHC class II antigen on the Raji B cell line. The assay is described as follows: cell-based or functional assay.

In the case of “CD4:ζ chimera (CD4 extracellular domain fused to human T cell receptor ζ chain)”, the cytolysis (51Cr release) of Raji (MHC class II+) cells by CTL expressing CD4:ζ was found to be 5 % cytolysis.
